The assay addresses T1, inhibin A (InhA), mature heterodimer, unlabelled (UniProt P05111 233-366; P08476 311-426).
T1 construct: inhibin α subunit, residues 233-366 of NP_002182.1; inhibin βA subunit, residues 311-426 of NP_002183.1; The His and Strep tags stood on the two chains of the pro-inhibin; source: expi293F, secreted as pro-inhibin, purified by His and Strep tags; mature dimer purified on C18 RPC; copies: 1 + 1
T1 sequence (looked up) 1: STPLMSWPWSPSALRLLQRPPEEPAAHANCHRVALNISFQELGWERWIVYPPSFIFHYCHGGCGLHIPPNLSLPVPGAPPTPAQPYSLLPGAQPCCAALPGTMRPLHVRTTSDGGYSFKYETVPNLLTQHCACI
T1 sequence (looked up) 2: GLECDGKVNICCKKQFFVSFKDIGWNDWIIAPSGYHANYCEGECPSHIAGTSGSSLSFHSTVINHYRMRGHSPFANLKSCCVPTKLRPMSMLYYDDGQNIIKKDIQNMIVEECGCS
The assay is described as follows: NMR titration; methyl 1H-13C SOFAST-HMQC of labelled BG_ZP-C (15-25 µM) with growth factors; 25 mM 2H-glycine pH 11.0 or 25 mM phosphate pH 6.0; 37 °C. The conditions noted are these: both partners purified.

B1: rat betaglycan ZP-C domain, bacterially expressed, isotopically labelled (domain or fragment, UniProt P26342 590-757, looked up)
chain: GNATFNMELYNTDLFLVPSPGVFSVAENEHVYVEVSVTKADQDLGFAIQTCFLSPYSNPDRMSDYTIIENICPKDDSVKFYSSKRVHFPIPHAEVDKKRFSFLFKSVFNTSLLFLHCELTLCSRKKGSLKLPRCVTPDDACTSLDATMIWTMMQNKKTFTKPLAVVLQ
modifications: 2H, 13C-methyl Isoleucine, Leucine, Valine (ILV) labeled
notes: betaglycan (TGFBR3), rat, residues 590-757 of NCBI NP_058952; A thrombin site lies between the Trx-His6 cassette and the domain; also called 13C-methyl-Ile BG_(ZP-C); ILV labeled BG_(ZP-C)
For B1, the binding result is reported as “binds”.

Source of the values: publication PMC11865472, “Structures of TGF-β with betaglycan and signaling receptors reveal mechanisms of complex assembly and signaling” (Nature Communications, 2025).
